From the nanobody polyreactivity screen of Harvey et al. (2022)

Test: yeast display, Sf9 membrane polyspecificity reagent, FACS + sequencing; frameworks hold sequencing errors
How it was run: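 Sorting gates, low and high (top ~1%), were placed on anti-HA fluorescence to track expression and on streptavidin fluorescence to track reagent binding. A clone's polyreactivity label is taken from the gate it came out of. The reagent was 10% biotinylated, detergent-solubilized Sf9 membrane, applied for 1 hour at 4 °C to galactose-induced yeast display cells.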

Sequence | polyreactivity (PSR sort gate)
QGQLVESGGGLVQAGGSLRLSCAASGRTLQYNAMGWYRPAPGKEWELVAAITSNGGSTYYADSVKGRFPISRDNAKNTVYLQMNSQKPEDTAVYDCAKAYRYVDRGYRLLRYGYWGQGNQVTVSS | high polyreactivity
QGQLVESGGGLVQAGGSLRLSCAASGSIFGGYGMGWYRQAPGKERELVAAITSGSSTYYADSVKGRFTISRDNAKNTVYLQMNSLKPEDTAVYYCAARPYPHSAYEGDYWGRGTQVTVSS | low polyreactivity
QGQLVESGGGLVQAGGSLRLSCAASGSIFGQYVMGWYRQAPGKERELVAAISGTGGSTYYADSVKGRFTISRDNAKNTVYLQMNSLKPEDTAVYYCAVVHRSSYRESGLLWRYYWGQGTQVTVSS | high polyreactivity
QGQLVESGGGLVQAGGSLRLSCAASGSIFRGYAMGWYRQAPGKERELVAAISWSGGSTYYADSVKGRFTISRDNAKNTVYLQMNSLKPEDTAVYYCAADRDVFGYWYYYWGQGTQVTVSS | high polyreactivity
QGQLVESGGGLVQAGGSLRLSCAASGSIFSKNALGWYRQAPGRERELVAAITSGASTNYADSVKGRFTISRDNAKNTVYLQMNSLKPEDTAGYYCAAKRNGFWYGYWGQGTQVTVSS | low polyreactivity
QGQLVESGGGLVQAGGSLRLSCAASGSIFYWYAMGWYRQAPGKERELVAVISTGTSTKYADSVKGRFTISRDNAKNTVYLQMNSLKPEDTAVYYCNADPVGPKYDYWGQGTQVTVSS | low polyreactivity
QGQLVESGGGLVQAGGSLRLSCAASGSIVWYNAMGWYRQAPGKERELVAAINWSGGSTFYADSVKGRFTISRDNAKNTVYLQMYSLKPEDTAVYYCAADDWYTGYDYWGQGTQVTVSS | high polyreactivity
QGQLVESGGGLVQAGGSLRLSCAASGSSFPYYAMGWYRQAPGKERELVASINQSDGTTYYADSVKGRFSISRDNAKNTVYLQMNSLKPEDTAVYYCAADTTLQAFIRYSPIGSYDSWGQGTQVTVSS | low polyreactivity
QGQLVESGGGLVQAGGSLRLSCAASGSTFANYDMAWYRQAPGKERELVAAITSRGGSTYYADSVKGRFTISRDNAKNTVYLQMNSLKPEDTAVYYCAAVTRNQGSFRYYFWGQGTQVTVSS | high polyreactivity
QGQLVESGGGLVQAGGSLRLSCAASGSTFRYNTMGWYRQAPGKERELVAAISSGGGTHYADSVKGRFTISRDNAKNTVYLQMNSLKPEDTAVYYCAAQSRYRYQFYSGLEYDYWGQGTQVTVSS | low polyreactivity
QGQLVESGGGLVQAGGSLRLSCAASGSTFSDYAKGWYRQAPGKERELVAGITGGGGTYYADSVKGRFTISRDNAKNTVYLQMNSLKPEDTAVYYCAAGRRHGFGYWGQGTQVTVSS | low polyreactivity
QGQLVESGGGLVQAGGSLRLSCAASGSTFWLNAMGWYRHAPGKERELVAVITWSGDGTYYADSVKWRFTISRDNAKNTVYVQMNSLKPEDTAVYYCAKGFERYPWYDYWGQGTQVTVSS | low polyreactivity
QGQLVESGGGLVQAGGSLRLSCAASGSTFWRYAMGWYRQAPGKERELVAAISRSGGSTYYADSVKGRFTISRDNAKNTVYLQMHSLKPEDTAFYYCAARYPTPYRKLGSWGQGTQVSVSS | high polyreactivity
QGQLVESGGGLVQAGGSLRLSCAASGSTLVKYAMGTNRQAPGKERELVAAISWSGGRTDYADSVKGRFTSSRDNAKNTVYLQMNSLKPEDTAVYYCAARSTRFYTPGYYYWGQGTQVTVSS | high polyreactivity
QGQLVESGGGLVQAGGSLRLSCAASGSTSGKNAMGWYRQAPGQERELVAVITYSGSRTYYADSVKGRFTISRDNAKNTVYLQMNSLKPEDTAVYYCATRGLKTYQAYDYWGQGTQVTVSS | high polyreactivity
QGQLVESGGGLVQAGGSLRLSCSASGLIFYRYTMGWYRQAPGKEREVVAAISSGGRTYSADSVKGRFTISRDNAKNTVYLQMNSLKPEDTAVYYCATRVYSVHAPSAVPIGGYYWGQGTQVTVSS | high polyreactivity
QGQLVESGGGLVQAGGSLRLSSAASGRIYLTNAMGWYRPAPGKERELVAAITSGGSTYYADSVKGRFTISRDNAKNTVYLQMNSLKPEDTAVYYCNADTDRYWPYEYDYWGQGTQVTVSS | low polyreactivity
QGQLVESGGGLVQAGGSLRVSCAASGYTFDSYAMGLYRQAPGKERELFAAITNGGSTYYADSVKGRFTISRDNAKKTVYLQLNSLKPEDTAVYYCATDDDQLDYLYDYWGPGTQVTVSS | low polyreactivity
QGQLVESGGGLVQAGGSLSLSCAASGFTFRYYTMGWYIQAPGKERALVASISRRGGSTYYADSVKGRFTISRDNAMNTVYLQMHSLKPEGTAVYYCNPLSQVFASRAPKFDYWGQGTQVTVSS | high polyreactivity
QGQLVESGGGLVQAGGSRRLSCAASGYSIDNNAMGWYRQAPGKEREVVASITNSAGSTSYADSVKGRFTISRDTAKNTVYLQMNSLKPEDTAVCYCSAKRYHYFFQYSRSGAYGYWGHGTQVTVSS | high polyreactivity
QGQLVESGGGLVQARGSLRLSCAASGRIFMTYAMAWYIQAPGKERELVAAIRSPSGTTYYADSVKGRFTISRDNAKNTVYLQMNSLKPEDTAVYYCAAGGKYSSYYWGQGTQVTVSS | high polyreactivity
QGQLVESGGGVVQAGGSLRLSSAASRRIFYSYPLGWYRPAPGKERELVAAISSSGGITYYADSVKGRFTISRDNAKNTGSLELNSLKPEDTAVYYCAARRRYKSGYWGQGTQVTVSS | high polyreactivity

Sequence | polyreactivity (PSR sort gate)
QGQLVESGRGLVQAGGSLSLSCAASGSTFFIYAMGWYRQAPGKERELVAAINRSGGRTYYADSVKGRFTISRYTAQNTVYLQMNSLKPEDTAVYYCAAYLGPYVRFYYWGQGTQGTVSS | high polyreactivity
QGQLVESVGGLVQAGGSLRLSCAASGSIFGWYVMGWYRQAPGQERELVAAISSVGSTYYADSVKGRFTISLDNAKNTVYLQMNSLKAEDTAVYYCAKLRYPYLFWDDSEYWGQGTQVTVSS | low polyreactivity
QGQLVETGGGLGQAGGSLRLSCAASGIIFYYYAMGWYRQAPGKERELVAAITGTGSRTYYADSVKGRFTISRDNAKNTVYIQMNSLKPEDTAVYYCYARSFATCSKVPARGYWGQGTQVTVSS | high polyreactivity
QGQLVVSGGGLVQAGGSLRLSCAASGRTFYWNAMGWSIQAPGKERELFASINGGGSTYYADSVKGRFTISRDNAKNTVYLQMYSLKPEDTAVYYCNAESYEFHRAWGDYDDWGHGTQVTVSS | low polyreactivity
QGQRVESGGGLVQAGGSLRLSCAGSGSTCVGYTMGWYRQAPGKERELVAAITSSDGSTYYADSVKGRFTISRDNAKNTVYLQMNSQKPEDTAVYYCAQTTRYPRGYGYWGQGTQVTVSS | low polyreactivity
QIQLVESGGGLVQAGGILRISCAASGRTFGSNTMGWSRQAPGKERELVAAISGTGTSTYYADSVKGRFTISRDNAKNTVYLQMNILKPEDTAVFYCAAGWYKYLFQPHDYWGQGTQVTVSS | low polyreactivity
QIQLVESGGGLVQAGGSLRLSCAASGFTFYWYAMGWYRQAPGKEREFVAAIDQSGGSTYYADSVKGRFTISRDNAKNTVYLQMNSLKPEDTAVYYCAARYILWDGDSWTEFDYWGQGTQVTVSS | low polyreactivity
QLHLVESGGGLVQAGGSLRLSCAASGIIFWYNDMGWYRQAPGKESELVAAISTGGSTNYADSVKGRFTISRDNAKNTVYLQMNSLKPEDTAVYYCAGDWHRAYGGYDYWGEGTQVTVSS | low polyreactivity
QLKLEESGGGLVQAGGSLRLSCAASGITFPWYAMGWYRQAPGKERELVAAINRAGNTNYADSVKGRFTISRDNAKNTVYLQRNSLKTEDTAVYYCAARWRYKYTLGYWGQGTQVTVSS | high polyreactivity
QLQLEESGGGFVQAGGSLRISCAASGAIFLSYAMGWYRQAAAKEMEFVAGISYSGGTTYYADSVKGRFTISRDNAKNTVYLQMNSLKQEVTAVYYCAKRTAVWTSGGYRKRDYWGQATQVTVSS | high polyreactivity
QLQLEESGGGLVQAGGSLRLSCAASGRTFESYGMGLYRQATGKERELVAAISHNADSTYADSVKGRFTISRDNAKNTVYLQMNSLKSEDTAVYYCNAETPVRSDYWGQGTQVTVSS | low polyreactivity
QLQLEESGRGLVQAGGSLRLSCAASGSIFYSNTMGWYRQAPGKERELVAAISTSDTSTYYADSVKGRFTISREKAKNTVYLQMNSLKPEDTAVYYCNAVGSIVLYGYWGQGTQVTVSS | low polyreactivity
QLQLGESGGGLVQAGGSLRLSCAASGSTFIVYAMGWYRQAPGKVRELVAAISSDGSTYYADSVKGRFTISRDNAKNTVYLQMNRLKPEYTAVYYCAAYVYDADTGYDYWGQGTQVTVSS | low polyreactivity
QLQLHESGGGLVQAGGCLSCTASGTIFGQGDMGWYRQAPGKERELVATINDGASTYYADSVKGRFTISRDKAKNTVYLKKNSLKPDDNAVYYCAVFTDITTYFGYWGQGTQVTVSS | low polyreactivity
QLQLLESAVGLVQAGGSLRLSCASSGRIFTQNTMGWYRQAPAKESELVAAINYSGGRTNYADSVKGRFTISRDNAKNTVYLQMNSLKPEDTAVYYCAAGYRRATYGYWGQGTQVTVSS | high polyreactivity
QLQLLESGGGIVQAGGILRLSCAASGFTFAHYAMGWYRQAPGIERELVAAITSRGGSTYYADSVKGRFTISRDNAKNPVYLQMNSLKPEDTAVYYCAAKTLLFIFGYWGQGTHVTVSS | high polyreactivity
QLQLQEGGGGLVQAGGSLRLSCAASGYISYGDVMGSYRQAPGEERELVASIGLDATTNYADSVKGRFNISRDNAKITVYLQMNSLKPEDTAVYYCAAVVGSGVLCGYWGQGTQMTVSS | high polyreactivity
QLQLQESGGGLVQAGGSLRLSCAWSGTIAFTRDLGSYRQAPGKDREFVASIDRGASTYYADSVKGRFTISRDNAKNTVYLQMNSLKPEDTAVYYRAVIAPFYSSFAYWGQGTQVTVSS | high polyreactivity
QLQLQESGGGLVQAGGSLRLSSAASGTISPLPAMGLYSQATGKERELVPGIDTGAITNYADSVKGRFTISRDNAKHTVYLQMNSLKPEDTAVYYCAVFPAAYDYYERYYTEWGQGTQVTVSS | high polyreactivity
QLQLQESGGLVQAGGSLRLSCAASGSISGRNVIGCYRQAPGKEREYVASITDGSSTNYADSVKGRFTISRDNAKNTVYLQMNSLKPKDTAVYYCAAYAQRAKSFGYWGRGTQVTVSS | low polyreactivity
QLQLVESFTGLVQAGGSLRLSCAASVPTFASYAMGWSRQAPGKERELVAVITRGVRTYYADSVKGRITISRDNAMNTVYLQMNSLKPEDTAVYDCAKERYNANYDTSLYDYWGQGTQGTVSS | low polyreactivity
